The target in assay [1] is T1, human 4-1BB, full-length, expressed on cells (human, UniProt Q07011 24-255).
T1 construct: also called CD137; TNFRSF9
Nature of the assay: flow cytometry, Jurkat-4-1BB.
Experimental: Jurkat T cells engineered to stably express human 4-1BB were used to measure binding of antibodies to human 4-1BB. Antibodies were diluted in 5 μl FB (PBS 2% FCS) 1:3 from stock in wells of a 96 V-well plate, and cells added on top. The cells were then left on ice for 30 minutes for the antibodies to bind. The cells were then washed twice in FB, and then incubated in 50 μl FB containing 2 μg/ml goat anti-human Alexa647 antibody (Jackson Immunoresearch). The cells were then left on ice for a further 20 minutes, washed twice in FB, resuspended in 100 μl FB and analysed on a BD Fortessa™ X20. The subsequent data files were analysed using FlowJo™ and Prism 7 (GraphPad) using a four-parameter non-linear regression.

Assay [2] has as its target T2, purified human monomeric 4-1BB (human, UniProt Q07011 24-186).
T2 construct: the assay used the 4-1BB part released by Factor Xa with the Fc removed; also called h4-1BB; human 4-1BB
In words: SPR, mean n=3.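 Note: antibodies captured on anti-human Fc chip, 4-1BB injected as five-point two-fold series from 40 nM by single-cycle kinetics at 25 °C, sensorgrams fitted to 1:1 Langmuir model.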
Experimental: The anti-human Fc surface was prepared on a CMS Series S sensorchip by standard amine coupling methods as described by the manufacturer (GE Healthcare). Briefly, immediately after EDC/NHS activation, a 25 μg/mL solution of anti-human Fc in 10 mM NaOAc pH 4.5 was injected at a flow rate of 10 μL/min for 420 s until approximately 2000 resonance units (RUs) were immobilized on all four flow cells. The remaining active groups were quenched by a 420 s injection of 1M ethanolamine at 10 μL/min.
Antibodies for analysis were captured onto the anti-Fc surface by injecting 5 μg/mL solutions at a flow rate of 10 μL/min for 60 s. Using single-cycle kinetics, five concentrations of a two-fold dilution series of 4-1BB starting at 40 nM (for both supernatant and purified antibody runs) with a blank buffer control were sequentially injected at 40 μL/min for 180 s with a 600 s dissociation phase, resulting in a set of sensorgrams with a buffer blank reference. Experiments were performed at a constant temperature of 25° C. The anti-human Fc surfaces were regenerated to prepare for the next injection cycle by one pulse of 10 mM Glycine/HCl pH 1.5 for 120 s at 40 μL/min. Blank-subtracted sensorgrams were analyzed using Biacore™ T200 Evaluation Software v3.0. The blank-subtracted sensorgrams were then fit to the 1:1 Langmuir binding model.
Protein material post protein-A or SEC was assessed for binding to human 4-1BB.

The target in assay [3] is T3, recombinant His-tagged human FRα (human, UniProt P15328 25-234).
T3 construct: Bought protein; also called hFRα; FRα-HIS
T3 sequence (P15328 25-234 limits assumed): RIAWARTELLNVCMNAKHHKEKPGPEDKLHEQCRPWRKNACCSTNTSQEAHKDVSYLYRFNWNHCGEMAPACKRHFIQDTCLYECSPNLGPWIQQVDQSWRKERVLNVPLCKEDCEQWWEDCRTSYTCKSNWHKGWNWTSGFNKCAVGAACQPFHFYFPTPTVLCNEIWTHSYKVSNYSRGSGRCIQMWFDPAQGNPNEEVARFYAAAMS
Nature of the assay: BLI, supernatant, n=1.
Experimental: (§1) The assay buffer used was KB buffer (kinetics buffer, composed of PBS pH 7.4, 0.1% BSA, 0.02% Tween 20, 0.05% sodium azide) supplemented with 0.06% Tween 20. The experiment was conducted at 25° C. with a shake speed of 1000 rpm.
(§2) Data analysis was performed using the Data analysis software 9.0′ (ForteBio). The reference-subtracted binding curves were globally fitted to the 1:1 interaction model to generate the binding kinetic parameters kₒₙ, koff, and the dissociation constant KD.

In assay [4] the target is T3, recombinant His-tagged human FRα. In words: BLI, purified, average n=2.
Experimental: as §1, §2

T1 sequence (Q07011 24-255): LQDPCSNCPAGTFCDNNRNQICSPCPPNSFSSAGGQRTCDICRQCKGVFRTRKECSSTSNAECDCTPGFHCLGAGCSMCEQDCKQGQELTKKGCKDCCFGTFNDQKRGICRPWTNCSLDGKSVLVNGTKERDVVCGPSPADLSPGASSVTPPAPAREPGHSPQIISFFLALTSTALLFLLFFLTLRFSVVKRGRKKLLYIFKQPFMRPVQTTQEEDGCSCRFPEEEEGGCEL
T2 sequence (Q07011 other isoform, or with tags, fused parts or gaps limits assumed): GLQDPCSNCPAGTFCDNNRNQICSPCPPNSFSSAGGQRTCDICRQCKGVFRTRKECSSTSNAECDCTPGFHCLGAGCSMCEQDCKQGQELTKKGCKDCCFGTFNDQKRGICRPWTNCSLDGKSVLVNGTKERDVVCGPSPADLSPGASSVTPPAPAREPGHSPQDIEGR

B1: v28700 (antibody, human IgG1, kappa, L234A L235A, V domains shown)
VH: QVQLQESGPGLVKPSETLSLTCTVSGFSLISYGVHWVRQPPGKGLEWLGVIWSGGSTDYNPSLKSRVTISKDTSKNQFSLKLSSVTAADTAVYYCARNPLTATVMDYWGQGTLVTVSS
VL: DIQMTQSPSSLSASVGDRVTITCRASQNVGTNVAWYQQKPGKAPKALIYSASYRDSGVPSRFSGSGSGTDFTLTISSLQPEDFATYYCQQYNSYPLTFGGGTKVEIKR
notes: also called humanized 5G8 H2L2
B1: in assay [1], the response was half-maximal at 56.4 nM (EC50). Further, the Kd (in general, the equilibrium constant for the complex coming apart) in assay [2] was found to be 222 nM.

B2: v28704 (antibody, human IgG1, kappa, L234A L235A, V domains shown)
VH: QVQLQESGPGLVKPSETLSITCTVSGFSLISYGVHWVRQPPGKGLEWLGVIWSGGSTDYNPSLKSRVTISKDTSKNQVSFKLSSLTAADTAIYYCARNPLTATVMDYWGQGTLVTVSS
VL: DIQMTQSPSSLSASVGDRVTITCRASQNVGTNVAWYQQKPGKAPKALIYSASYRDSGVPSRFSGSGSGTDFTLTISSLQPEDFATYYCQQYNSYPLTFGGGTKVEIKR
notes: also called humanized 5G8 H3L2
For the molecule B2, the EC50 (in general, the concentration needed to bring the measured effect to its halfway point) in assay [1] is 3.46 nM. The Kd in assay [2] stood at 179 nM.

B3: v28712 (antibody, human IgG1, kappa, L234A L235A, V domains shown)
VH: QVQLQESGPGLVKPSETLSITCTVSGFSLISYGVHWVRQPPGKGLEWLGVIWSGGSTDYNPSLKSRVTISKDNSKNQVSFKLSSLTAADTAIYYCARNPLTATVMDYWGQGTLVTVSS
VL: DIQMTQSPSSLSASVGDRVTVTCRASQNVGTNVAWYQQKPGKAPKALIYSASYRDSGVPSRFSGSGSGTDFTLTISSVQPEDFATYYCQQYNSYPLTFGGGTKLEIKR
notes: also called humanized 5G8 H4L3
In turn, B3 gave an EC50 in assay [1] of 3.56 nM. The Kd in assay [2] is 229 nM.

B4: v28707 (antibody, human IgG1, kappa, L234A L235A, V domains shown)
VH: QVQLQESGPGLVKPSETLSITCTVSGFSLISYGVHWVRQPPGKGLEWLGVIWSGGSTDYNPSLKSRVTISKDNSKNQVSFKLSSLTAADTAIYYCARNPLTATVMDYWGQGTLVTVSS
VL: DIQMTQSPSSLSASVGDRVTITCRASQNVGTNVAWFQQKPGKAPKSLIYSASYRDSGVPSRFSGSGSGTDFTLTISSLQPEDFATYYCQQYNSYPLTFGGGTKVEIKR
notes: also called humanized 5G8 H4L1
The molecule B4 displayed an EC50 in assay [1] of 51.6 nM. For the same molecule, in assay [2], the Kd amounted to 732 nM.

B5: v28703 (antibody, human IgG1, kappa, L234A L235A, V domains shown)
VH: QVQLQESGPGLVKPSETLSITCTVSGFSLISYGVHWVRQPPGKGLEWLGVIWSGGSTDYNPSLKSRVTISKDTSKNQVSFKLSSLTAADTAIYYCARNPLTATVMDYWGQGTLVTVSS
VL: DIQMTQSPSSLSASVGDRVTITCRASQNVGTNVAWFQQKPGKAPKSLIYSASYRDSGVPSRFSGSGSGTDFTLTISSLQPEDFATYYCQQYNSYPLTFGGGTKVEIKR
notes: also called humanized 5G8 H3L1
As for B5, in assay [1], the EC50 stood at 3.58 nM. Binding in assay [2] was put at a Kd of 811 nM.

B6: v28706 (antibody, human IgG1, kappa, L234A L235A, V domains shown)
VH: QVQLQESGPGLVKPSETLSITCTVSGFSLISYGVHWVRQPPGKGLEWLGVIWSGGSTDYNPSLKSRVTISKDTSKNQVSFKLSSLTAADTAIYYCARNPLTATVMDYWGQGTLVTVSS
VL: DIQMTQSPSSLSASVGDRVTVTCRASQNVGTNVAWYQQKPGKAPKALIYSASYRDSGVPSRFSGSGSGTDFTLTISSVQPEDLATYYCQQYNSYPLTFGGGTKLEIKR
notes: also called humanized 5G8 H3L4
The molecule B6 showed an EC50 in assay [1] of 1.92 nM. Moreover, the affinity in assay [2], expressed as Kd, was 159 nM.

B7: v28702 (antibody, human IgG1, kappa, L234A L235A, V domains shown)
VH: QVQLQESGPGLVKPSETLSLTCTVSGFSLISYGVHWVRQPPGKGLEWLGVIWSGGSTDYNPSLKSRVTISKDTSKNQFSLKLSSVTAADTAVYYCARNPLTATVMDYWGQGTLVTVSS
VL: DIQMTQSPSSLSASVGDRVTVTCRASQNVGTNVAWYQQKPGKAPKALIYSASYRDSGVPSRFSGSGSGTDFTLTISSVQPEDLATYYCQQYNSYPLTFGGGTKLEIKR
notes: also called humanized 5G8 H2L4
B7: a half-maximal effect in assay [1] (EC50) was put at 55.6 nM. Further, the Kd in assay [2] was determined as 620 nM.

B8: v28711 (antibody, human IgG1, kappa, L234A L235A, V domains shown)
VH: QVQLQESGPGLVKPSETLSITCTVSGFSLISYGVHWVRQPPGKGLEWLGVIWSGGSTDYNPSLKSRVTISKDNSKNQVSFKLSSLTAADTAIYYCARNPLTATVMDYWGQGTLVTVSS
VL: DIQMTQSPSSLSASVGDRVTITCRASQNVGTNVAWYQQKPGKAPKALIYSASYRDSGVPSRFSGSGSGTDFTLTISSLQPEDFATYYCQQYNSYPLTFGGGTKVEIKR
notes: also called humanized 5G8 H4L2
B8: a half-maximal response in assay [1] (EC50) required 139 nM. In assay [2], this molecule registered a Kd of 227 nM.

B9: v28701 (antibody, human IgG1, kappa, L234A L235A, V domains shown)
VH: QVQLQESGPGLVKPSETLSLTCTVSGFSLISYGVHWVRQPPGKGLEWLGVIWSGGSTDYNPSLKSRVTISKDTSKNQFSLKLSSVTAADTAVYYCARNPLTATVMDYWGQGTLVTVSS
VL: DIQMTQSPSSLSASVGDRVTVTCRASQNVGTNVAWYQQKPGKAPKALIYSASYRDSGVPSRFSGSGSGTDFTLTISSVQPEDFATYYCQQYNSYPLTFGGGTKLEIKR
notes: also called humanized 5G8 H2L3
Turning to B9, the EC50 in assay [1] was 30 nM. In assay [2], binding was put at a Kd of 610 nM.

B10: v28713 (antibody, human IgG1, kappa, L234A L235A, V domains shown)
VH: QVQLQESGPGLVKPSETLSITCTVSGFSLISYGVHWVRQPPGKGLEWLGVIWSGGSTDYNPSLKSRVTISKDNSKNQVSFKLSSLTAADTAIYYCARNPLTATVMDYWGQGTLVTVSS
VL: DIQMTQSPSSLSASVGDRVTVTCRASQNVGTNVAWYQQKPGKAPKALIYSASYRDSGVPSRFSGSGSGTDFTLTISSVQPEDLATYYCQQYNSYPLTFGGGTKLEIKR
notes: also called humanized 5G8 H4L4
Turning to B10, the EC50 in assay [1] came to 2.34 nM. For the same molecule, the affinity in assay [2], expressed as Kd, was 184 nM.

B11: v23820 (antibody, human IgG1, kappa, V domains shown)
VH: QEQLVESGGGLVQPEGSLTLTCKASGFTISNNYYMCWVRQAPGKGLEWIACIYGGISGRTYYASWAKGRFTISKTSSTTVTLQMTSLTAADTATYFCVRGYVGTSNLWGPGTLVTVSS
VL: DIVMTQTPASVEAAVGGTVTIKCQASQSIYSSLAWYQQKPGQSPKLLIYDASHLASGVPSRFSGSRYGTEFTLTISGVQCDDAATYYCQGGWYSSAATYVPNTFGGGTEVVVKR
notes: FSA format; rabbit variable domains, human IgG1/kappa constant domains; also called 8K22 rabbit-human parental chimera
With B11, the Kd stood at 5.94 nM in assay [3] and 4.11 nM in assay [4].

B12: v23800 (antibody, human IgG1, kappa)
heavy: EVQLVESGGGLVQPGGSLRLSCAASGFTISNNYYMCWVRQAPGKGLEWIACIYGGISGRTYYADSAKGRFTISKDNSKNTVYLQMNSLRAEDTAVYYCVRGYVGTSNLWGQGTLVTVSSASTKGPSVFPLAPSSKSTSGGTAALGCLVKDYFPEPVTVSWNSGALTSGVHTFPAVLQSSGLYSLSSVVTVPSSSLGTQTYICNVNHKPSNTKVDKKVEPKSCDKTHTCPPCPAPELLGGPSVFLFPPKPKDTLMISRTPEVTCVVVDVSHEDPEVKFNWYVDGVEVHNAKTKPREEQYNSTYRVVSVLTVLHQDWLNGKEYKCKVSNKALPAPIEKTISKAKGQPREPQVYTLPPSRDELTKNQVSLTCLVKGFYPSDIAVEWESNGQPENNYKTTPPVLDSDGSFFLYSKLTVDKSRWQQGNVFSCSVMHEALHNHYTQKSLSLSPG
light: DIQMTQSPSSLSASVGDRVTITCQASQSIYSSLAWYQQKPGKAPKLLIYDASHLASGVPSRFSGSGSGTDFTLTISSVQPEDFATYYCQGGWYSSAATYVPNTFGGGTKVEVKRTVAAPSVFIFPPSDEQLKSGTASVVCLLNNFYPREAKVQWKVDNALQSGNSQESVTEQDSKDSTYSLSSTLTLSKADYEKHKVYACEVTHQGLSSPVTKSFNRGEC
notes: also called humanized 8K22 H2L2
As to B12, the Kd in assay [3] is 36.5 nM.

B13: v23795 (antibody, human IgG1, kappa)
heavy: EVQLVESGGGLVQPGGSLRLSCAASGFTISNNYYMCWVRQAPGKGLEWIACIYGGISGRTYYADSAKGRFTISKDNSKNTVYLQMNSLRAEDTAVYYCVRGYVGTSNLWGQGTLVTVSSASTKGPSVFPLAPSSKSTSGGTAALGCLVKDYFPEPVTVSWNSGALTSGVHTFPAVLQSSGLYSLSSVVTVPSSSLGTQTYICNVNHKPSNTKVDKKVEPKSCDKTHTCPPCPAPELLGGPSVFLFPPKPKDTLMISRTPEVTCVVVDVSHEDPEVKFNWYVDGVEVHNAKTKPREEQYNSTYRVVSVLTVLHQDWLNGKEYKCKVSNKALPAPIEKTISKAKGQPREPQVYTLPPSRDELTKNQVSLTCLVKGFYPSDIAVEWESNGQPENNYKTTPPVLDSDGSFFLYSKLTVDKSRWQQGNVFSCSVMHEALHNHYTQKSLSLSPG
light: DIQMTQSPSSLSASVGDRVTITCQASQSIYSSLAWYQQKPGKAPKLLIYDASHLASGVPSRFSGSGSGTDFTLTISSVQPEDFATYYCQGGWYSSAATYVPNTFGGGTKVEIKRTVAAPSVFIFPPSDEQLKSGTASVVCLLNNFYPREAKVQWKVDNALQSGNSQESVTEQDSKDSTYSLSSTLTLSKADYEKHKVYACEVTHQGLSSPVTKSFNRGEC
notes: also called humanized 8K22 H2L1
Take B13: in assay [3], the Kd was 35.7 nM.

B14: v23798 (antibody, human IgG1, kappa)
heavy: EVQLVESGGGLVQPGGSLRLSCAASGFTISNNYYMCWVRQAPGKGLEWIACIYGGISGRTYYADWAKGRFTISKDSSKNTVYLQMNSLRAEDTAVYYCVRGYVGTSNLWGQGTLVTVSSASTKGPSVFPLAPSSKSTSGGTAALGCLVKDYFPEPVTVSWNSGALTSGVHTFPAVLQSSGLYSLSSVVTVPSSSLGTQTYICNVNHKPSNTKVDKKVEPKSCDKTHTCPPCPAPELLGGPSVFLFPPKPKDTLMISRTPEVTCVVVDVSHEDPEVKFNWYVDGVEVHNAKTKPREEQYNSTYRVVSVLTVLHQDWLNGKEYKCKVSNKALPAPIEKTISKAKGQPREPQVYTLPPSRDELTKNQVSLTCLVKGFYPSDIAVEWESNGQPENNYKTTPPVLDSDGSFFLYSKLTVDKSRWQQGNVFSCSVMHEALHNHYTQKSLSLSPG
light: DIQMTQSPSSLSASVGDRVTITCQASQSIYSSLAWYQQKPGKAPKLLIYDASHLASGVPSRFSGSGSGTDFTLTISSVQPEDFATYYCQGGWYSSAATYVPNTFGGGTKVEIKRTVAAPSVFIFPPSDEQLKSGTASVVCLLNNFYPREAKVQWKVDNALQSGNSQESVTEQDSKDSTYSLSSTLTLSKADYEKHKVYACEVTHQGLSSPVTKSFNRGEC
notes: also called humanized 8K22 H5L1
In the case of B14, the Kd in assay [3] was found to be 11.9 nM; in assay [4] it was 6.85 nM.

B15: v23803 (antibody, human IgG1, kappa)
heavy: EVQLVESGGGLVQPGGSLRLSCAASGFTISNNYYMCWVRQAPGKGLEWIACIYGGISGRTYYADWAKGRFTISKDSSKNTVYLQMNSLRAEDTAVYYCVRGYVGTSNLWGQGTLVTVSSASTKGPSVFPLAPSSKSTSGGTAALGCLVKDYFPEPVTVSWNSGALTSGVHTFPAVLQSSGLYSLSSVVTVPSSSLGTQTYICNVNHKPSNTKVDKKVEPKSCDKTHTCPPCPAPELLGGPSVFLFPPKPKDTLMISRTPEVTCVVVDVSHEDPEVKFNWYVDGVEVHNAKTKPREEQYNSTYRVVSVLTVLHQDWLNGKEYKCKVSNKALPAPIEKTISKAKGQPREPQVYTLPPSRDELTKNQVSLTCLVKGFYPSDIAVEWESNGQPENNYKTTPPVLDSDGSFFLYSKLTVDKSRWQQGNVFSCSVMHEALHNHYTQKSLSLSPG
light: DIQMTQSPSSLSASVGDRVTITCQASQSIYSSLAWYQQKPGKAPKLLIYDASHLASGVPSRFSGSGSGTDFTLTISSVQPEDFATYYCQGGWYSSAATYVPNTFGGGTKVEVKRTVAAPSVFIFPPSDEQLKSGTASVVCLLNNFYPREAKVQWKVDNALQSGNSQESVTEQDSKDSTYSLSSTLTLSKADYEKHKVYACEVTHQGLSSPVTKSFNRGEC
notes: also called humanized 8K22 H5L2
On to B15, for which the Kd in assay [3] was determined as 31.7 nM.

B16: v23810 (antibody, human IgG1, kappa, V domains shown)
VH: EVQLVESGGGLVQPGGSLRLSCAASGFTISNNYYMCWVRQAPGKGLEWIACIYGGISGRTYYADSAKGRFTISKDNSKNTVYLQMNSLRAEDTAVYYCVRGYVGTSNLWGQGTLVTVSS
VL: DIQMTQSPSSLSASVGDRVTITCQASQSIYSSLAWYQQKPGKAPKLLIYDASHLASGVPSRFSGSGSGTDFTLTISSVQPEDAATYYCQGGWYSSAATYVPNTFGGGTKVEVKR
notes: also called humanized 8K22 H2L4
Take B16: the Kd in assay [3] came to 35 nM.

B17: v23813 (antibody, human IgG1, kappa, V domains shown)
VH: EVQLVESGGGLVQPGGSLRLSCAASGFTISNNYYMCWVRQAPGKGLEWIACIYGGISGRTYYADWAKGRFTISKDSSKNTVYLQMNSLRAEDTAVYYCVRGYVGTSNLWGQGTLVTVSS
VL: DIQMTQSPSSLSASVGDRVTITCQASQSIYSSLAWYQQKPGKAPKLLIYDASHLASGVPSRFSGSGSGTDFTLTISSVQPEDAATYYCQGGWYSSAATYVPNTFGGGTKVEVKR
notes: also called humanized 8K22 H5L4
As to B17, in assay [3], the Kd came out at 34.6 nM.

B18: v23794 (antibody, human IgG1, kappa)
heavy: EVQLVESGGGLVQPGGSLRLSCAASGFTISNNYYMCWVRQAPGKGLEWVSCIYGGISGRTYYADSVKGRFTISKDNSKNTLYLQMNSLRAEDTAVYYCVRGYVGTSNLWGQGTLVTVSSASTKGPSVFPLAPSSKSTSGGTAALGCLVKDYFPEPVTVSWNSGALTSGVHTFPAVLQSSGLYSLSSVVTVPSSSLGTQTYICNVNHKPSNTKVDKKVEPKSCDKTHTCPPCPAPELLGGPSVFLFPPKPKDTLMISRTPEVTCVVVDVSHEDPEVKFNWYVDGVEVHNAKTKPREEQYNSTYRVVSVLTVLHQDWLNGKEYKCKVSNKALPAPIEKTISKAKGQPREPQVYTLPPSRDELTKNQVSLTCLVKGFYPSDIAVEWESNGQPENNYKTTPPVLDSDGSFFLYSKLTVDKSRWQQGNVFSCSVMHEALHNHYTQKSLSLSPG
light: DIQMTQSPSSLSASVGDRVTITCQASQSIYSSLAWYQQKPGKAPKLLIYDASHLASGVPSRFSGSGSGTDFTLTISSVQPEDFATYYCQGGWYSSAATYVPNTFGGGTKVEIKRTVAAPSVFIFPPSDEQLKSGTASVVCLLNNFYPREAKVQWKVDNALQSGNSQESVTEQDSKDSTYSLSSTLTLSKADYEKHKVYACEVTHQGLSSPVTKSFNRGEC
notes: also called humanized 8K22 H1L1
For B18, the Kd in assay [3] came to 15.1 nM; in assay [4] it was 7.36 nM.

B19: v23796 (antibody, human IgG1, kappa)
heavy: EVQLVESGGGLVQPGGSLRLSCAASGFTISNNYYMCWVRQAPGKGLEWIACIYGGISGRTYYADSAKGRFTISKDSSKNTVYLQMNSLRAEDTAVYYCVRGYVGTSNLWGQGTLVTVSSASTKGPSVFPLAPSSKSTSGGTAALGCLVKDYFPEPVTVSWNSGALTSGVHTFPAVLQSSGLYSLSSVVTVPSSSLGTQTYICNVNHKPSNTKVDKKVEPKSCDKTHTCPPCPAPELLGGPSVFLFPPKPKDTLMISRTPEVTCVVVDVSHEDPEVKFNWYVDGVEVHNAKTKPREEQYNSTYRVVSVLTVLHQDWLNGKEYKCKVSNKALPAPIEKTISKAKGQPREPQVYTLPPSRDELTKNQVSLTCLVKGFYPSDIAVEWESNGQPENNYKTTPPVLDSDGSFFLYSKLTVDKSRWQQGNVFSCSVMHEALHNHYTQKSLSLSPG
light: DIQMTQSPSSLSASVGDRVTITCQASQSIYSSLAWYQQKPGKAPKLLIYDASHLASGVPSRFSGSGSGTDFTLTISSVQPEDFATYYCQGGWYSSAATYVPNTFGGGTKVEIKRTVAAPSVFIFPPSDEQLKSGTASVVCLLNNFYPREAKVQWKVDNALQSGNSQESVTEQDSKDSTYSLSSTLTLSKADYEKHKVYACEVTHQGLSSPVTKSFNRGEC
notes: also called humanized 8K22 H3L1
Take B19: the Kd in assay [3] amounted to 22.2 nM; in assay [4], 11.2 nM.
